From US20250243289A1 (PROMETHEUS BIOSCIENCES, published 2025)
Several values for one entry are separate records, joined by “and”; a condition that tells them apart may be missing. Identical values can stand only once.

T1: recombinant TL1A antigen (UniProt O95150 72-251, limits assumed)
T1 sequence (looked up): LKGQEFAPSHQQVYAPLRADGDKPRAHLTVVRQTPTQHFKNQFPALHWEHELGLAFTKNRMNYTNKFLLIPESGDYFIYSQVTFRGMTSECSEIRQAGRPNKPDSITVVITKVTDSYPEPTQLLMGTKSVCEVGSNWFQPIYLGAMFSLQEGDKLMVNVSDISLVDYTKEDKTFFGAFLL

T2: recombinant human TL1A protein (tumor necrosis factor-like cytokine 1A) (human, UniProt O95150 72-251)
T2 sequence (looked up): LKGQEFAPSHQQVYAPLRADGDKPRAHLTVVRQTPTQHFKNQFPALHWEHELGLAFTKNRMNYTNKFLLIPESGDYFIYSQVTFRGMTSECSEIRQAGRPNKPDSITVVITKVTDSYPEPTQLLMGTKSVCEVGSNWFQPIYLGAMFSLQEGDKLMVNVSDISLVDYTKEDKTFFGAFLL

T3: recombinant cynomolgus monkey TL1A protein (cynomolgus monkey, UniProt G7PRK8 72-251)
T3 sequence: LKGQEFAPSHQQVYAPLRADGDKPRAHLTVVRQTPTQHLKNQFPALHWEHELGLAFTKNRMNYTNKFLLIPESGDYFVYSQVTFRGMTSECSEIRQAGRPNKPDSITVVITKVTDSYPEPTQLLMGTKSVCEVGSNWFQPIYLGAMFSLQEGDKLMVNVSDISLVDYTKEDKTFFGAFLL

T4: human TL1A, endogenous in human whole blood (human, UniProt O95150 72-251, limits assumed)
T4 sequence (looked up): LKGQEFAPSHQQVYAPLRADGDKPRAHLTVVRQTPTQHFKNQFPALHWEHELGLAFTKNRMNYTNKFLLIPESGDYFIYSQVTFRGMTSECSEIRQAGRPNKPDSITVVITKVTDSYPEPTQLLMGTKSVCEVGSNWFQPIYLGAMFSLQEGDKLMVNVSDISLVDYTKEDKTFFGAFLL


How the values were obtained:
recombinant TL1A antigen = target: T1, recombinant TL1A antigen; assay: ELISA titration against recombinant TL1A antigen
[1] = target: monkey TL1A in the in vitro monkey whole blood IFN-γ assay (monkey); assay: cell-based or functional assay
[2] = target: T2, recombinant human TL1A protein (tumor …); assay: cell-based or functional assay
[3] = target: T3, recombinant cynomolgus monkey TL1A …; assay: cell-based or functional assay
[4] = target: T4, human TL1A, endogenous in human whole …; assay: cell-based or functional assay

| % Inhibition at 1 nM Ig (interferon gamma release in human blood) [4] [%] | % Inhibition at 10 nM Ig (interferon gamma release in human blood) [4] [%] | Binder | also measured |
| --- | --- | --- | --- |
|  |  | anti-TL1A antibody with heavy chain SEQ ID NO: 379 (S228P, L235E) and light chain SEQ ID NO: 381 (antibody, human IgG4 S228P, kappa, IgG4) heavy: not shown light: EIVLTQSPGTLSLSPGERATLSCRASSSVSYMYWYQQKPGQAPRPLIYATSNLASGIPDRFSGSGSGTDFTLTISRLEPEDFAVYYCQQWEGNPRTFGGGTKLEIKRTVAAPSVFIFPPSDEQLKSGTASVVCLLNNFYPREAKVQWKVDNALQSGNSQESVTEQDSKDSTYSLSSTLTLSKADYEKHKVYACEVTHQGLSSPVTKSFNRGEC | EC50 (recombinant TL1A antigen): 0.324 nM |
|  |  | anti-TL1A antibody A219 (antibody, V domains shown) VH: QVQLVQSGAEVKKPGASVKVSCKASGFDIQDTYMHWVKQRPGQGLEWMGRIDPASGHTKYDPKFQVRVTITRDTSTSTVYLELSSLRSEDTAVYYCARSGGLPDVWGQGTTVTVSS VL: EIVLTQSPGTLSLSPGERATLSCRASSSVSYMYWYQQKPGQAPRPLIYATSNLASGIPDRFSGSGSGTDFTLTISRLEPEDFAVYYCQQWEGNPRTFGGGTKLEIK | IC50 of the in vitro monkey whole blood IFN-γ release assay [1]: 1.54 nM and 289 ng/mL; inhibition of human TL1A-induced caspase activation in TF-1 cells (IC50) [2]: 0.27 nM; inhibition of monkey TL1A-induced caspase activation in TF-1 cells (IC50) [3]: 0.59 nM; inhibition of the IFN-γ response in monkey whole blood stimulated with immune complex, IL-12 and IL-18 (mean IC50) [3]: 1.54 nM and 289 ng/ml |
| 51.3 | 72.4 | A147 (antibody, human IgG1, V domains shown) VH: QVQLVQSGAEVKKPGASVKVSCKASGFDIQDTYMHWVKQRPGQGLEWMGRIEPASGHIKYDPKFQGRVTMTRDTSTSTVYMELSSLRSEDTAVYYCARSGGLPDWWGQGTTVTVSS VL: EIVLTQSPGTLSLSPGERATLSCRASSSVSYMYWYQQKPGQAPRPLIYATSNLASGIPDRFSGSGSGTDFTLTISRLEPEDFAVYYCQQWEGNPRTFGGGTKLEIK |  |
| 48.6 | 69.8 | A213 (antibody, human IgG1, V domains shown) VH: QVQLVQSGAEVKKPGASVKVSCKASGFDIQDTYMHWVRQRPGQGLEWMGRIDPASGHTKYDPKFQVRVTITTDTSTSTVYMELSSLRSEDTAVYYCARSGGLPDVWGQGTTVTVSS VL: EIVLTQSPGTLSLSPGERATLSCRASSSVSYMYWYQQKPGQAPRPLIYATSNLASGIPDRFSGSGSGTDFTLTISRLEPEDFAVYYCQQWEGNPRTFGGGTKLEIK |  |
| 36.9 | 63.2 | A220 (antibody, human IgG1, V domains shown) VH: QVQLVQSGAEVKKPGASVKVSCKASGFDIQDTYMHWVKQRPGQGLEWMGRIDPASGHTKYDPKFQVRVTMTRDTSTSTAYLELSSLRSEDTAVYYCARSGGLPDVWGQGTTVTVSS VL: EIVLTQSPGTLSLSPGERATLSCRASSSVSYMYWYQQKPGQAPRPWIYATSNLASGIPDRFSGSGSGTDFTLTISRLEPEDFAVYYCQQWEGNPRTFGGGTKLEIK |  |
| 46 | 72.2 | A217 (antibody, human IgG1, V domains shown) VH: QVQLVQSGAEVKKPGASVKVSCKASGFDIQDTYMHWVKQRPGQGLEWMGRIDPASGHTKYDPKFQVRVTITRDTSTSTVYMELSSLRSEDTAVYYCARSGGLPDVWGQGTTVTVSS VL: EIVLTQSPGTLSLSPGERATLSCRASSSVSYMYWYQQKPGQAPRPLIYATSNLASGIPDRFSGSGSGTDFTLTISRLEPEDFAVYYCQQWEGNPRTFGGGTKLEIK |  |
| 59.8 | 75.2 | A219 (antibody, V domains shown) VH: QVQLVQSGAEVKKPGASVKVSCKASGFDIQDTYMHWVKQRPGQGLEWMGRIDPASGHTKYDPKFQVRVTITRDTSTSTVYLELSSLRSEDTAVYYCARSGGLPDVWGQGTTVTVSS VL: EIVLTQSPGTLSLSPGERATLSCRASSSVSYMYWYQQKPGQAPRPLIYATSNLASGIPDRFSGSGSGTDFTLTISRLEPEDFAVYYCQQWEGNPRTFGGGTKLEIK |  |
| 46.8 | 71.2 | A212 (antibody, human IgG1, V domains shown) VH: QVQLVQSGAEVKKPGASVKVSCKASGFDIQDTYMHWVRQRPGQGLEWIGRIDPASGHTKYDPKFQVRATITTDTSTSTAYLELSSLRSEDTAVYYCARSGGLPDVWGQGTTVTVSS VL: EIVLTQSPGTLSLSPGERATLSCRASSSVSYMYWYQQKPGQAPRPLIYATSNLASGIPDRFSGSGSGTDFTLTISRLEPEDFAVYYCQQWEGNPRTFGGGTKLEIK |  |
